Assay: yeast display, Sf9 membrane polyspecificity reagent, FACS + sequencing; frameworks hold sequencing errors
Method in brief: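 Sorting gates, low and high (top ~1%), were placed on anti-HA fluorescence to track expression and on streptavidin fluorescence to track reagent binding. A clone's polyreactivity label is taken from the gate it came out of. The reagent was 10% biotinylated, detergent-solubilized Sf9 membrane, applied for 1 hour at 4 °C to galactose-induced yeast display cells.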
For “QVQLVESGGGLVQAGGSLRLSCAASGSTFWVYTMGWYRQAPGKERELVAAISYGGGRTYYADSVKGRFTISRDNEKNTVYLQMNSLKPEDTAVYYCNKDYWRDVAQDVLDGYEYWGQGTQVTVSS”, the “polyreactivity (PSR sort gate)” value was “low polyreactivity”. For “QVQLVESGGGLVQAGGSLRLSCAASGSTFWVYTMGWYRQAPGKERELVAAITLNGGSTYYADSVKGRFTISRDNAKNTVYLQMNSLKPEDTAVYYCAAYVFPFDKSYHYVGYDYWGQGTQVTVSS”, the “polyreactivity (PSR sort gate)” value was “low polyreactivity”. In the case of “QVQLVESGGGLVQAGGSLRLSCAASGSTFWWYAMGWYRQAPGKDRELVAASSYSGSSTYYADSVKGRFTISRDNAKNTVYLQMNSLKPEDTAVYYCAADIQYYYNYYPGDYWGQGTQVTVSS”, the “polyreactivity (PSR sort gate)” value is reported as “low polyreactivity”. For “QVQLVESGGGLVQAGGSLRLSCAASGSTFWWYAMGWYRQAPGKEREFVAAINWRGSSTYYADSVKGRFTISRDNAKNTVYLQMNSLKPEDTSVYYCNAVLRYGYAGMDYWGQGTQVTVSS”, the “polyreactivity (PSR sort gate)” value was “high polyreactivity”. In the case of “QVQLVESGGGLVQAGGSLRLSCAASGSTFWYNAMGWYRQAPGKEREFVASISFRSGRTYYADSVKGRFTISRDNAKNTVYLQMNSLKPEDTAVYYCAADYYQYKYDYWGQGTQVTVSS”, the “polyreactivity (PSR sort gate)” value is reported as “high polyreactivity”. For “QVQLVESGGGLVQAGGSLRLSCAASGSTFWYNAMGWYRQAPGKERELVASITLSGARTYYADSVKGRFTISRDNAKNTVYLQMNSLKPEDTAVYYCAKRTGRVKYYYWGQGTQVTVSS”, the “polyreactivity (PSR sort gate)” value was “high polyreactivity”. With “QVQLVESGGGLVQAGGSLRLSCAASGSTFWYNAMGWYRQAPGTERELVATITNSGGSTYYADSVKGRFTISRDNAKNTVYLQMNSLKPEDTAVYYCATDVYSGALLKYDYWGQGTQVTVSS” the “polyreactivity (PSR sort gate)” value was “low polyreactivity”. For “QVQLVESGGGLVQAGGSLRLSCAASGSTFWYYAMAWYRHAPGKEREMVAAINSDDSTNYADSVKGRFTISRDNAKNTDYLQMNSLKPEDTAVYDCHRGFVYSTTGLWRYYDFDYWGQGTQVTLSS”, the “polyreactivity (PSR sort gate)” value was “low polyreactivity”. In the case of “QVQLVESGGGLVQAGGSLRLSCAASGSTFWYYAMGWYRQAPGKEREFVAAITTSAGRTYYADSVKGRFTISRDNAKNSVYLQMNSLKPEDTAVYYCAAEPRQYWEYNYWGQGTQVTVSS”, the “polyreactivity (PSR sort gate)” value is reported as “high polyreactivity”. With “QVQLVESGGGLVQAGGSLRLSCAASGSTFWYYAMGWYRQAPGKERELVAAISRSTGSTYYADSVKGRFTISRDNAKNTVYLQMNSLKPEDTAVYYCNKDPVPSFFIPEIGYSEYDYWGQGTQVTVSS” the “polyreactivity (PSR sort gate)” value was “low polyreactivity”. For “QVQLVESGGGLVQAGGSLRLSCAASGSTFWYYAMGWYRQAPGKERQLVAAISRNGVSTYYADSVKGRFTISRDIAKNTVYLQMNSMKPEDTAVYYCNVVTKFTGRGYDYWGQGTQVTVSS”, the “polyreactivity (PSR sort gate)” value was “high polyreactivity”. In the case of “QVQLVESGGGLVQAGGSLRLSCAASGSTFWYYTMGWYRQAPGKERELVAAITESGGGTYYADSVKGRFTISRDNAKNTVYLQMNSLKPEDTAVYYCAAYSRFTSDYWGQGTQVTVSS”, the “polyreactivity (PSR sort gate)” value is reported as “high polyreactivity”. With “QVQLVESGGGLVQAGGSLRLSCAASGSTFYANAMGWYRQAPGKEREFVADITISGGRTYYADSVKGRFTISRDNAKNTVYLQMNSLKPEDTAVYYWNTRGIFFQSQTHDYWGQGTQVTVSS” the “polyreactivity (PSR sort gate)” value was “low polyreactivity”. For “QVQLVESGGGLVQAGGSLRLSCAASGSTFYANAMGWYRQAPGKERELVAAIDSGGTTTYADSVKGRFTISRDNAKNTVYLQMNSLKPEDTAVYYCAADQYWYIWYDYWGQGTQVTVSS”, the “polyreactivity (PSR sort gate)” value was “low polyreactivity”. In the case of “QVQLVESGGGLVQAGGSLRLSCAASGSTFYAYTMGWYRQAPGKERELVAAITSSGSNTYYADSVKGRFTISRDNAKNTVYLQMNSLKPEDTAVYYCAARITREGYYWGQGTQVTVSS”, the “polyreactivity (PSR sort gate)” value is reported as “high polyreactivity”. With “QVQLVESGGGLVQAGGSLRLSCAASGSTFYDSAMGWYRQAPGKERELVAAINWSSDTTYYADSVKGRFTISRDNAKNTVYLQMNSLKPEDTAVYYCATDSAYRGYDYWGQGTQVNVSS” the “polyreactivity (PSR sort gate)” value was “low polyreactivity”. For “QVQLVESGGGLVQAGGSLRLSCAASGSTFYDYVMGWYRQAPGKERELVAAITGSGGRTYYADSVKGRFTISRDNAKNTVYLQMNSLKPEDTAVYYCAVRVHYNRVYGRYSPRYDYWGQGTQVTVSS”, the “polyreactivity (PSR sort gate)” value was “high polyreactivity”. With “QVQLVESGGGLVQAGGSLRLSCAASGSTFYENTMGWYRQAPGKERELVAAISVRGGSTYYADSVKGRFTISRDNEKKTVYLQMNRLKPEDTAVYYCAVLDVYRYRMDYSGQGTQVTVSS” the “polyreactivity (PSR sort gate)” value was “low polyreactivity”. In the case of “QVQLVESGGGLVQAGGSLRLSCAASGSTFYFYAMGWYRPAPGKERELVAAITYSGGSTYYADSVKGRFTISRDNAKNTVYLQMNSLKPEDTAVYYCAAQWRRHSTRSRYYYWGQGSQVTVSS”, the “polyreactivity (PSR sort gate)” value is reported as “high polyreactivity”. In the case of “QVQLVESGGGLVQAGGSLRLSCAASGSTFYFYDMGWYRQAPGKERELVATIDDGGGSTYYADSVKGRFTISRDNAKNTVYLQMNSLKPEDTAVYYCNADDSEYLIYDYWGQGTQVTVSS”, the “polyreactivity (PSR sort gate)” value is reported as “low polyreactivity”. In the case of “QVQLVESGGGLVQAGGSLRLSCAASGSTFYGNAMGWYRQAPGKERELVATIDSTAGTNYADSVKGRFTISRDNAKNTVYLQMNSLKPEDTAVYYCAREYSIYNPPGYLGTVEYDYWGQGTQVTVSS”, the “polyreactivity (PSR sort gate)” value is reported as “low polyreactivity”. For “QVQLVESGGGLVQAGGSLRLSCAASGSTFYGNAMGWYRQAPGKERELVATISWSGGSTYYADSVKGRFTISRDNAKNTVYLQMNSLKPEDTAVYYCNAEITTKSLVTRYSWYGGDYWGQGTQVTVSS”, the “polyreactivity (PSR sort gate)” value was “low polyreactivity”. With “QVQLVESGGGLVQAGGSLRLSCAASGSTFYGYALGWYRQAPGKERELVAAITRSGGSTYYADSVKGRFTISRDNAKNTVYLQMNSLKPEDTEVYYCNKYGYKGGVGYDYWGQGTQVTVSS” the “polyreactivity (PSR sort gate)” value was “high polyreactivity”. For “QVQLVESGGGLVQAGGSLRLSCAASGSTFYGYAMGWYRQAPGKERELVAAINWSGGRTYYADSVKGRFTISRDNAKNTVYLQMNSLKPEDTAVYYCAARGRYQPQFDYWGQGTQVTVSS”, the “polyreactivity (PSR sort gate)” value was “high polyreactivity”. For “QVQLVESGGGLVQAGGSLRLSCAASGSTFYHNVMGWYRQAPGKERELVASIYRGGSTYYADSVKGRFTISRDNAKNTVYLQMNSLKPEDTAVYYCAKEYKSLWWDGRMNYWGQGTQVTVSS”, the “polyreactivity (PSR sort gate)” value was “low polyreactivity”. For “QVQLVESGGGLVQAGGSLRLSCAASGSTFYHYAMGWYRKAPGKERELVAAISTSGGRTYYADSVKGRFTISRDNAKNTVYLQLNSLKPEDTAVYYCAARPGSWFPSVPSYNYWGQGTQVTVSS”, the “polyreactivity (PSR sort gate)” value was “low polyreactivity”. With “QVQLVESGGGLVQAGGSLRLSCAASGSTFYHYAMGWYRQAPGKERELVAAISTSGGRTYYADSVKGRFTISRDNAKNTVYLQMNSLKPEDTAVYYCAARPGSWYPSVPSYNYWGQGTQVTVSS” the “polyreactivity (PSR sort gate)” value was “low polyreactivity”. In the case of “QVQLVESGGGLVQAGGSLRLSCAASGSTFYINAMGWYRQAPGKERELVAAITSGGSTNYADSVKGRFTISRDNAKNTVYLQMNSLKPEDTAVYYCAKVSYYPWRYDYWGQGTQVTVSS”, the “polyreactivity (PSR sort gate)” value is reported as “low polyreactivity”. With “QVQLVESGGGLVQAGGSLRLSCAASGSTFYINDMGWYRQAPGKERELVASISWRGGSTYADSVKGRFTISRDNAKNTDYLQMNSLKPEDTAVYYCAAEFDVYSHHWITSYDYWGQGTQVTVSS” the “polyreactivity (PSR sort gate)” value was “high polyreactivity”. For “QVQLVESGGGLVQAGGSLRLSCAASGSTFYIYAMGWSRQAPGKERELVARISGSGGSTYYADSVKGRFTISRDNAKNTVYLQMNSLKPEDTAVYYCAADDIYKYYQYYAFPYYRYDYWGQGTQVTVSS”, the “polyreactivity (PSR sort gate)” value was “low polyreactivity”. With “QVQLVESGGGLVQAGGSLRLSCAASGSTFYIYAMGWYRQAPGKERELVAVITRRGGSTSYADSVKGRFTISRDNAKNTVYLQINSLKPEDTAVYYCAAKRTWPDVKYIRYGYWGQGTQVTVSS” the “polyreactivity (PSR sort gate)” value was “high polyreactivity”.

Source: the nanobody polyreactivity screen of Harvey et al. (2022)
